Source: paper doi:10.1101/2022.02.08.479534, “FoxP3 can fold into two distinct dimerization states with divergent functional implications for T cell homeostasis” (bioRxiv, 2022)
Each block holds one binder with its values, some of them ahead of it.

Assays:
[1] = target: the molecule itself; test: SEC-MALS; NusA-fused proteins on Superdex 200 Increase 10/300; 20 mM Tris pH 7.5, 500 mM NaCl, 2 mM DTT; miniDAWN MALS and Optilab dRI detectors
[2] = target: the molecule itself; test: cross-linking; 2 μM FoxP3^forkhead with 100 μM BMOE in 1x PBS, 1 h at 25°C, quenched with 10 mM DTT; SDS-PAGE, Krypton stain
[3] = target: T1, MBP-tagged FoxP3^RBR-forkhead (mouse, UniProt Q99JB6 284-423); test: pull-down; MBP pull-down: MBP-FoxP3^RBR-forkhead 1 μM with GST-Runx1(371-451) 0.5 μM, with or without 2 μM DNA (IR-FKHM^4g or single FKHM), 30 min at room temperature in RIPA buffer; conditions: both partners purified
T1 construct: FoxP3, mouse, RBR-forkhead, residues 284-423; cloned into a modified pMAL-c2 vector; also called MBP-FoxP3^RBR-forkhead; His6-MBP fused FoxP3^RBR-forkhead; source: E. coli BL21(DE3), purified (Ni-NTA, Superdex 200)
T1 sequence (looked up): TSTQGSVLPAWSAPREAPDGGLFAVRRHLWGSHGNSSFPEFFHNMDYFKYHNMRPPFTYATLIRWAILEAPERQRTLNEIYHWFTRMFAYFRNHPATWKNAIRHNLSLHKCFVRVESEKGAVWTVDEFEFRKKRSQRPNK

B1: NusA-tagged FoxP3^forkhead (domain or fragment, mouse, UniProt Q99JB6 336-423, looked up)
chain: MRPPFTYATLIRWAILEAPERQRTLNEIYHWFTRMFAYFRNHPATWKNAIRHNLSLHKCFVRVESEKGAVWTVDEFEFRKKRSQRPNK
notes: FoxP3, mouse, forkhead domain, residues 336-423; NusA (60 kDa) kept for SEC-MALS; also called isolated FoxP3 forkhead; source: E. coli BL21(DE3), purified (Ni-NTA, Superdex 200), HRV3C cleavage omitted; not shown: His6, N-terminal, kept; NusA, N-terminal, kept
stoichiometry N [1]: 2

B2: FoxP3^forkhead C394S T368C (swap dimer-specific X-linking construct) (domain or fragment, mouse, UniProt Q99JB6 336-423, looked up)
chain: MRPPFTYATLIRWAILEAPERQRTLNEIYHWFCRMFAYFRNHPATWKNAIRHNLSLHKSFVRVESEKGAVWTVDEFEFRKKRSQRPNK
notes: FoxP3, mouse, forkhead, residues 336-423 with C394S and T368C; source: E. coli BL21(DE3), purified (Ni-NTA, HRV3C cleavage, Superdex 75); not shown: His6, N-terminal, cleaved; NusA, N-terminal, cleaved
binding result [2]: binds

binding result [3]: binds
B3: GST-tagged Runx1 (residue 371-451) (domain or fragment, mouse, UniProt Q03347 371-451, looked up)
chain: GSPSYHLYYGASAGSYQFSMVGGERSPPRILPPCTNASTGAALLNPSLPSQSDVVETEGSHSNSPTNMPPARLEEAVWRPY
notes: cloned into pGEX-6P-1; also called Runx1^ΔN; source: E. coli BL21(DE3), purified (Ni-NTA, Superdex 200)

B4: NusA-tagged FoxP3^RBR-forkhead R337Q (domain or fragment, mouse, UniProt Q99JB6 284-423, looked up)
chain: TSTQGSVLPAWSAPREAPDGGLFAVRRHLWGSHGNSSFPEFFHNMDYFKYHNMQPPFTYATLIRWAILEAPERQRTLNEIYHWFTRMFAYFRNHPATWKNAIRHNLSLHKCFVRVESEKGAVWTVDEFEFRKKRSQRPNK
notes: FoxP3, mouse, RBR-forkhead, residues 284-423 with the IPEX mutation R337Q; R337Q is a mutation of human IPEX patients, here put into the mouse protein; also called R337Q FoxP3^RBR-forkhead; FoxP3^RBR-forkhead with R337Q; source: E. coli BL21(DE3), purified (Ni-NTA, Superdex 200), HRV3C cleavage omitted; not shown: His6, N-terminal, kept; NusA, N-terminal, kept
stoichiometry N [1]: 2

B5: NusA-tagged FoxP3^RBR-forkhead Y373V (domain or fragment, mouse, UniProt Q99JB6 284-423, looked up)
chain: TSTQGSVLPAWSAPREAPDGGLFAVRRHLWGSHGNSSFPEFFHNMDYFKYHNMRPPFTYATLIRWAILEAPERQRTLNEIYHWFTRMFAVFRNHPATWKNAIRHNLSLHKCFVRVESEKGAVWTVDEFEFRKKRSQRPNK
notes: FoxP3, mouse, RBR-forkhead, residues 284-423 with the IPEX mutation Y373V; Y373V is a mutation of human IPEX patients, here put into the mouse protein; also called Y373V FoxP3^RBR-forkhead; source: E. coli BL21(DE3), purified (Ni-NTA, Superdex 200), HRV3C cleavage omitted; not shown: His6, N-terminal, kept; NusA, N-terminal, kept
stoichiometry N [1]: 4

B6: NusA-tagged FoxP3^ΔN (domain or fragment, mouse, UniProt Q99JB6 188-423, looked up)
chain: GSYPLLANGVCKWPGCEKVFEEPEEFLKHCQADHLLDEKGKAQCLLQREVVQSLEQQLELEKEKLGAMQAHLAGKMALAKAPSVASMDKSSCCIVATSTQGSVLPAWSAPREAPDGGLFAVRRHLWGSHGNSSFPEFFHNMDYFKYHNMRPPFTYATLIRWAILEAPERQRTLNEIYHWFTRMFAYFRNHPATWKNAIRHNLSLHKCFVRVESEKGAVWTVDEFEFRKKRSQRPNK
notes: FoxP3, mouse, ZF, CC, RBR and forkhead, residues 188-423; source: E. coli BL21(DE3), purified (Ni-NTA, Superdex 200), HRV3C cleavage omitted; not shown: His6, N-terminal, kept; NusA, N-terminal, kept
stoichiometry N [1]: 2
